# B1: HPPDm-4-02: nucleotide sequence encoding Avena sativa HPPD with A107 deletion+K351N+F372A+F383W; vector DBN11785 (nucleic acid)
# DNA: ATGCCACCTACTCCAGCTACAGCTACTGGTGCTGCTGCTGCTGCCGTTACTCCTGAGCACGCTGCCAGGTCATTCCCCAGGGTGGTTCGCGTGAACCCCAGATCTGATAGGTTCCCAGTTCTGAGCTTCCACCATGTTGAGCTGTGGTGCGCTGATGCTGCTTCTGCTGCTGGCAGGTTCTCTTTCGCTCTTGGTGCTCCACTCGCTGCTAGATCTGATCTGTCTACAGGAAATAGCGCTCATGCCTCACTCCTGCTTCGCTCAGGTGCTTTGGCCTTCCTCTTCACCGCTCCATATGCTCCCCCACCTCAGGAGGCTACTGCTGCTGCTACAGCCTCCATTCCAAGCTTCTCAGCTGATGCCGCTAGAACCTTCGCTGCTGCTCATGGACTTGCCGTGAGGTCTGTTGGTGTTCGCGTGGCTGATGCTGCTGAGGCTTTCAGAGTTTCCGTTGCCGGCGGAGCTAGGCCAGCTTTCGCTCCTGCTGATTTGGGACATGGTTTCGGCCTGGCTGAGGTTGAGCTTTACGGTGACGTGGTTCTCCGCTTCGTGTCTTACCCAGATGAGACTGACCTGCCTTTCCTTCCCGGCTTCGAGAGAGTTTCCTCTCCTGGTGCCGTGGATTACGGCCTGACAAGGTTCGACCACGTGGTTGGAAACGTTCCCGAGATGGCTCCAGTGATCGATTACATGAAGGGCTTCCTTGGATTCCATGAGTTCGCCGAGTTCACTGCTGAGGACGTGGGAACCACTGAGTCCGGTTTGAACTCTGTGGTTCTCGCCAACAATTCTGAGGCTGTTTTGCTCCCTCTGAATGAGCCTGTGCATGGAACCAAGAGGAGAAGCCAGATTCAAACTTACCTGGAGTACCACGGTGGCCCTGGAGTTCAGCATATCGCCCTTGCTTCTAATGATGTGTTGCGCACACTCAGAGAGATGCGCGCCAGAACCCCCATGGGAGGTTTCGAGTTCATGGCCCCACCACAGGCTAAGTACTACGAGGGCGTTAGAAGGATTGCTGGAGACGTGTTGAGCGAGGAGCAGATCAATGAGTGCCAAGAGCTGGGTGTTCTTGTGGATAGGGATGACCAGGGCGTTCTGCTTCAAATTGCCACTAAGCCAGTGGGCGACCGCCCTACATTCTGGCTTGAGATGATTCAAAGAATCGGCTGCATGGAGAAGGATGAGGTTGGACAGGAGTACCAAAAGGGCGGATGCGGTGGCTTCGGAAAGGGTAACTTCAGCGAGTTGTTCAAGTCAATCGAGGACTACGAGAAGAGCCTCGAGGTGAAGCAGTCAGTGGTTGCCCAAAAGTCCTGA
# modifications: HPPDm-4-02 Nucleotide Sequence
# notes: vector DBN11785
# Legend:
# Format in all cases: in vivo
# [1] = tested on: Arabidopsis thaliana T1 plants; experiment: Mesotrione tolerance of transgenic Arabidopsis thaliana T1 plants (spray, bleached leaf area grade, damage score); design: Scores: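 damage score 0-100 computed as Σ(N×S)/(T×M)×100 over grades 0-3 with higher meaning more damage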; conditions: Table 12; for Classification and statistics of the grade of pesticide damage Grade 0: number of plants at grade 0; for Classification and statistics of the grade of pesticide damage Grade 1: number of plants at grade 1; for Classification and statistics of the grade of pesticide damage Grade 2: number of plants at grade 2; for Classification and statistics of the grade of pesticide damage Grade 3: number of plants at grade 3; for Scores: pesticide damage score
# Procedure, shortened: (§1)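 Damage was assessed by bleaching grade (0 none; 1 <50%; 2 >50%; 3 100% of leaf area) one week after spraying. Sprays on 18-day-old T1 and wild-type plants used field-rate multiples: topramezone 25–200, isoxaflutole 35–280, mesotrione 52.5–420 g ai/ha.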
# [2] = tested on: Arabidopsis thaliana T1 plants; experiment: Isoxaflutole tolerance of transgenic Arabidopsis thaliana T1 plants (spray, bleached leaf area grade, damage score); conditions: Table 11; for Classification and statistics of the grade of pesticide damage Grade 0: number of plants at grade 0; for Classification and statistics of the grade of pesticide damage Grade 1: number of plants at grade 1; for Classification and statistics of the grade of pesticide damage Grade 2: number of plants at grade 2; for Classification and statistics of the grade of pesticide damage Grade 3: number of plants at grade 3; for Scores: pesticide damage score;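 as to Scores: Weighted damage index from 0 to 100 where higher means more damage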
# Procedure, shortened: as §1
# [3] = tested on: Arabidopsis thaliana T1 plants; experiment: Topramezone tolerance of transgenic Arabidopsis thaliana T1 plants (spray, bleached leaf area grade, damage score); conditions: Table 10; for Classification and statistics of the grade of pesticide damage Grade 0: number of plants at grade 0; for Classification and statistics of the grade of pesticide damage Grade 1: number of plants at grade 1; for Classification and statistics of the grade of pesticide damage Grade 2: number of plants at grade 2; for Classification and statistics of the grade of pesticide damage Grade 3: number of plants at grade 3; for Scores: pesticide damage score
# Procedure, shortened: as §1
molecule,measurement,setting,value
B1,Resistance evaluation,[1]; mesotrione 210 g ai/ha (2×),Highly resistant
same,Classification and statistics of the grade of pesticide damage Grade 0,[1]; mesotrione 210 g ai/ha (2×),16
same,Classification and statistics of the grade of pesticide damage Grade 1,[1]; mesotrione 210 g ai/ha (2×),0
same,Classification and statistics of the grade of pesticide damage Grade 2,[1]; mesotrione 210 g ai/ha (2×),0
same,Classification and statistics of the grade of pesticide damage Grade 3,[1]; mesotrione 210 g ai/ha (2×),0
same,Scores,[1]; mesotrione 210 g ai/ha (2×),0
same,Resistance evaluation,[1]; mesotrione 420 g ai/ha (4×),Highly resistant
same,Classification and statistics of the grade of pesticide damage Grade 0,[1]; mesotrione 420 g ai/ha (4×),15
same,Classification and statistics of the grade of pesticide damage Grade 1,[1]; mesotrione 420 g ai/ha (4×),1
same,Classification and statistics of the grade of pesticide damage Grade 2,[1]; mesotrione 420 g ai/ha (4×),0
same,Classification and statistics of the grade of pesticide damage Grade 3,[1]; mesotrione 420 g ai/ha (4×),0
same,Scores,[1]; mesotrione 420 g ai/ha (4×),2
same,Resistance evaluation,[2]; isoxaflutole 140 g ai/ha (2×),Highly resistant
same,Classification and statistics of the grade of pesticide damage Grade 0,[2]; isoxaflutole 140 g ai/ha (2×),16
same,Classification and statistics of the grade of pesticide damage Grade 1,[2]; isoxaflutole 140 g ai/ha (2×),0
same,Classification and statistics of the grade of pesticide damage Grade 2,[2]; isoxaflutole 140 g ai/ha (2×),0
same,Classification and statistics of the grade of pesticide damage Grade 3,[2]; isoxaflutole 140 g ai/ha (2×),0
same,Scores,[2]; isoxaflutole 140 g ai/ha (2×),0
same,Resistance evaluation,[2]; isoxaflutole 280 g ai/ha (4×),Highly resistant
same,Classification and statistics of the grade of pesticide damage Grade 0,[2]; isoxaflutole 280 g ai/ha (4×),13
same,Classification and statistics of the grade of pesticide damage Grade 1,[2]; isoxaflutole 280 g ai/ha (4×),3
same,Classification and statistics of the grade of pesticide damage Grade 2,[2]; isoxaflutole 280 g ai/ha (4×),0
same,Classification and statistics of the grade of pesticide damage Grade 3,[2]; isoxaflutole 280 g ai/ha (4×),0
same,Scores,[2]; isoxaflutole 280 g ai/ha (4×),6
same,Resistance evaluation,[3]; topramezone 100 g ai/ha (4×),Highly resistant
same,Classification and statistics of the grade of pesticide damage Grade 0,[3]; topramezone 100 g ai/ha (4×),16
same,Classification and statistics of the grade of pesticide damage Grade 1,[3]; topramezone 100 g ai/ha (4×),0
same,Classification and statistics of the grade of pesticide damage Grade 2,[3]; topramezone 100 g ai/ha (4×),0
same,Classification and statistics of the grade of pesticide damage Grade 3,[3]; topramezone 100 g ai/ha (4×),0
same,Scores,[3]; topramezone 100 g ai/ha (4×),0
same,Resistance evaluation,[3]; topramezone 200 g ai/ha (8×),Highly resistant
same,Classification and statistics of the grade of pesticide damage Grade 0,[3]; topramezone 200 g ai/ha (8×),16
same,Classification and statistics of the grade of pesticide damage Grade 1,[3]; topramezone 200 g ai/ha (8×),0
same,Classification and statistics of the grade of pesticide damage Grade 2,[3]; topramezone 200 g ai/ha (8×),0
same,Classification and statistics of the grade of pesticide damage Grade 3,[3]; topramezone 200 g ai/ha (8×),0
same,Scores,[3]; topramezone 200 g ai/ha (8×),0

# From US20250043302A1, “MUTATED HYDROXYPHENYLPYRUVATE DIOXYGENASE POLYPEPTIDE, AND CODING GENE AND USE THEREOF” (BEIJING DABEINONG BIOTECHNOLOGY CO., LTD., priority 2021, published 2025)
